We go through one molecule from patent publication US20110077250, “COMPOUNDS FOR MODULATING RNA BINDING PROTEINS AND USES THEREFOR” (published 2011).

The target in this series is T1, MEX-5 (UniProt Q9XUB2 Q9XUB2:236-350).
T1 sequence: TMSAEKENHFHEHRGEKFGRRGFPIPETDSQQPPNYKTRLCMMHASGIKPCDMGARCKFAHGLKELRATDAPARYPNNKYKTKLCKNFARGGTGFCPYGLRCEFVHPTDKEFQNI
The experiment in a line: FP; 120 nM protein, 2 nM RNA, 100 uM zinc acetate, 20-50 mM Tris pH 8.0, 40-100 mM NaCl, tRNA; Z-value 0.8-0.9; also by gel shift; small-molecule inhibition of complex measured. As to conditions: tags: N-terminal MBP fusion (pMal-c, NEB); HTS paragraph says C-terminal fusion to MBP; from Open Biosystems ORFeome clone; label: 3'-fluorescein (FITC). For orientation: Mobility shift assays separate free from complexed probe on a gel.

UUUCUUUAUAACUUGUUACAAUUUUUGAAA (ssRNA) [TCR2 RNA]: the binding result is on record as “binds”.
